In publication PMC5097169, “Acetylation of histone H4 lysine 5 and 12 is required for CENP-A deposition into centromeres” (Nature Communications, 2016):

Target: T1, Flag RbAp46 (Xenopus, recombinant) (Xenopus, UniProt Q8AVH1 1-425)
T1 construct: RbAp46, Xenopus (xRbAp46); also called xRbAp46
Experiment: pull-down; GST-histone tails coupled to NHS Sepharose (20 μl resin) with 0.7 μg Hat1, RbAp46 or RbAp48, or RbAp46 with Hat1, in 150 μl 20 mM K-HEPES pH 7.4, 50 mM KCl, 0.1% Tween-20, 5 mM DTT; 2 h at 4 °C; washes with 300 mM KCl; coomassie-stained gel
Details: both partners purified

T1 sequence (Q8AVH1 whole entry): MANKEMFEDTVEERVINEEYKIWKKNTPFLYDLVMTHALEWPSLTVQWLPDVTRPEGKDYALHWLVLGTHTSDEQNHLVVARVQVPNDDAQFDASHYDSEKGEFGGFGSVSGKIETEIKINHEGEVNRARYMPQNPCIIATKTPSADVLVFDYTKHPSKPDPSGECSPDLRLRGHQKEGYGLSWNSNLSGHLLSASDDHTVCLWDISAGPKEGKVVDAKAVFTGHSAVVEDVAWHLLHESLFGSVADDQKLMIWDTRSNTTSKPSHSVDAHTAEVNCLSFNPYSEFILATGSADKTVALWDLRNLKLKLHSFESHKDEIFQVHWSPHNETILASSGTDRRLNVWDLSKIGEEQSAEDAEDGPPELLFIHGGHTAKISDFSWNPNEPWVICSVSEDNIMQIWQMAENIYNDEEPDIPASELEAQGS

binding result: binds
B1: GST fusion to Xenopus laevis CENP-A amino terminus (amino acids 1–50) (domain or fragment, UniProt Q569M3 1-50, looked up)
chain: MRPGSTPPSRRKSRPPRRVSPPLPTTSRTSPRRPHAQQQRRASRASPKKR
notes: CENP-A, Xenopus laevis, amino terminus, amino acids 1–50, in pGEX-6P-1; also called GST-CENP-A N-terminal tail; xCENP-A N-terminus
